{"source": "paper PMC3079244", "about": "(Biochemistry, 2011)", "key": {"[1]": {"target": "TylM1 (Streptomyces fradiae, UniProt P95748)", "experiment": "X-ray crystal structure, […] Å", "assay_type": "binding", "conditions": "pH 7.0"}, "[2]": {"target": "the molecule itself", "experiment": "crystal structure"}, "[3]": {"target": "the molecule itself", "experiment": "crystal structure", "remark": "listed apart in the source"}}}
{"molecule": "C[S+](CC[C@H](N)C(=O)O)C[C@H]1O[C@@H](n2cnc3c(N)ncnc32)[C@H](O)[C@@H]1O", "note": "(some centres unmarked) [SAM]", "values": [{"measurement": "X-ray crystal structure, 1.35 Å", "setting": "[1]; ternary complex with dTDP-phenol, methyl donor site", "value": "The SAM cofactor abuts the first three β-strands of the N-terminal domain"}]}
{"molecule": "Cc1cn([C@H]2C[C@H](O)[C@@H](COP(=O)(O)OP(=O)(O)Oc3ccccc3)O2)c(=O)[nH]c1=O", "note": "[dTDP-phenol]", "values": [{"measurement": "X-ray crystal structure, 1.35 Å", "setting": "[1]; ternary complex with SAM, sugar-nucleotide site", "value": "a close-up view of the binding pocket for dTDP-phenol is presented"}]}
{"molecule": "TylM1 from Streptomyces fradiae (N,N-dimethyltransferase), wild type (enzyme, UniProt P95748 1-255, looked up) MAHSSATAGPQADYSGEIAELYDLVHQGKGKDYHREAADLAALVRRHSPKAASLLDVACGTGMHLRHLADSFGTVEGLELSADMLAIARRRNPDAVLHHGDMRDFSLGRRFSAVTCMFSSIGHLAGQAELDAALERFAAHVLPDGVVVVEPWWFPENFTPGYVAAGTVEAGGTTVTRVSHSSREGEATRIEVHYLVAGPDRGITHHEESHRITLFTREQYERAFTAAGLSVEFMPGGPSGRGLFTGLPGAKGETR", "values": [{"measurement": "stoichiometry N", "setting": "[2]", "value": 2}]}
{"molecule": "TylM1 H123N mutant protein (enzyme, Streptomyces fradiae, UniProt P95748 1-255, looked up) MAHSSATAGPQADYSGEIAELYDLVHQGKGKDYHREAADLAALVRRHSPKAASLLDVACGTGMHLRHLADSFGTVEGLELSADMLAIARRRNPDAVLHHGDMRDFSLGRRFSAVTCMFSSIGNLAGQAELDAALERFAAHVLPDGVVVVEPWWFPENFTPGYVAAGTVEAGGTTVTRVSHSSREGEATRIEVHYLVAGPDRGITHHEESHRITLFTREQYERAFTAAGLSVEFMPGGPSGRGLFTGLPGAKGETR", "values": [{"measurement": "binding result", "setting": "[3]", "value": "binds"}]}
{"molecule": "TylM1 H123A mutant protein (enzyme, Streptomyces fradiae, UniProt P95748 1-255, looked up) MAHSSATAGPQADYSGEIAELYDLVHQGKGKDYHREAADLAALVRRHSPKAASLLDVACGTGMHLRHLADSFGTVEGLELSADMLAIARRRNPDAVLHHGDMRDFSLGRRFSAVTCMFSSIGALAGQAELDAALERFAAHVLPDGVVVVEPWWFPENFTPGYVAAGTVEAGGTTVTRVSHSSREGEATRIEVHYLVAGPDRGITHHEESHRITLFTREQYERAFTAAGLSVEFMPGGPSGRGLFTGLPGAKGETR", "values": [{"measurement": "binding result", "setting": "[3]", "value": "binds"}]}
